From patent publication US20250186614A1, “COMPACT DRUG RESPONSIVE DOMAINS FOR REGULATION OF FUNCTION/ABUNDANCE AND DELIVERY OF POLYPEPTIDE PAYLOADS” (OBSIDIAN THERAPEUTICS, INC., priority 2022, published 2025)
Where a chain is given by its changes, count along the chain named. Names may count otherwise.

B1: FKBP-167: FKBP13 DRD-AcGFP construct of Table 10 (protein)
chain: HCPIKSRKGDVLHAHYTGKLEDGTEFDSSLPRNQPFVFWLGTGRRIKGWDQGLLGMCEGEKRKLVIPSELGYGERGWPPKIPGGATLVFEVELLKIER
modifications: Description of sequence: Construct Name: FKBP-167; Mutation(s): Q72R S79W Q84R A117W DRD M54A V85R
B2: FKBP-168: FKBP13 DRD-AcGFP construct of Table 10 (protein)
chain: B1 chain with W39S, T42W
modifications: Description of sequence: Construct Name: FKBP-168; Mutation(s): Q72R T82W Q84R A117W DRD M54A V85R
B3: FKBP-157: FKBP13 DRD Q72R, T82W, Q84E, A117W, M54A; SEQ ID NO: 107 (protein)
chain: B1 chain with W39S, T42W, R45V
modifications: Description of sequence: FKBP13-AcGFP-mCherry Fusion; Construct Name: FKBP-157; FKBP13 DRD in Construct : FKBP13 (mutated to match FKBP12 active site Q72R T82W Q84E A117W) (DRD M54A)
B4: FKBP-117: FKBP13 DRD Q72R, Q84E, A117W, V85R; SEQ ID NO: 67 (protein)
chain: B1 chain with A14M, W39S, R44E
modifications: Description of sequence: FKBP13-AcGFP-mCherry Fusion; Construct Name: FKBP-117; FKBP13 DRD in Construct : FKBP13 (mutated to match FKBP12 active site Q72R Q84E A117W) (DRD V85R)
B5: FKBP-170 (protein)
chain: B1 chain with W39S, T42W, R44E
modifications: Description of sequence: Construct Name: FKBP-170; Mutation(s): Q72R T82W Q84E A117W DRD M54A V85R
B6: FKBP-166 (protein)
chain: B1 chain with R44E
modifications: Description of sequence: Construct Name: FKBP-166; Mutation(s): Q72R S79W Q84E A117W DRD M54A V85R
B7: FKBP-169 (protein)
chain: B1 chain with W39S, T42W, R44E, R45V
modifications: Description of sequence: Construct Name: FKBP-169; Mutation(s): Q72R T82W Q84E A117W DRD M54A
B8: FKBP-152: FKBP13 DRD Q72R, Q84W, A117W, M54A; SEQ ID NO: 102 (protein)
chain: B1 chain with W39S, R44W, R45V
modifications: Description of sequence: FKBP13-AcGFP-mCherry Fusion; Construct Name: FKBP-152; FKBP13 DRD in Construct : FKBP13 (mutated to match FKBP12 active site Q72R Q84W A117W) (DRD M54A)
B9: FKBP-156: FKBP13 DRD Q72R, T82W, Q84W, A117W, M54A; SEQ ID NO: 106 (protein)
chain: B1 chain with W39S, T42W, R44W, R45V
modifications: Description of sequence: FKBP13-AcGFP-mCherry Fusion; Construct Name: FKBP-156; FKBP13 DRD in Construct : FKBP13 (mutated to match FKBP12 active site Q72R T82W Q84W A117W) (DRD M54A)
B10: FKBP-158: FKBP13 DRD Q72R, Q84E, A117W, M54A G111E; SEQ ID NO: 108 (protein)
chain: B1 chain with W39S, R44E, R45V, G71E
modifications: Description of sequence: FKBP13-AcGFP-mCherry Fusion; Construct Name: FKBP-158; FKBP13 DRD in Construct : FKBP13 (mutated to match FKBP12 active site Q72R Q84E A117W) (DRD M54A G111E)
B11: FKBP-154: FKBP13 DRD Q72R, S79W, Q84W, A117W, M54A; SEQ ID NO: 104 (protein)
chain: B1 chain with W39S, R44E, R45V
modifications: Description of sequence: FKBP13-AcGFP-mCherry Fusion; Construct Name: FKBP-154; FKBP13 DRD in Construct : FKBP13 (mutated to match FKBP12 active site Q72R S79W Q84W A117W) (DRD M54A)
B12: FKBP-159: FKBP13 DRD Q72R, Q84E, A117W, M54A G111Y; SEQ ID NO: 109 (protein)
chain: B1 chain with W39S, R44E, R45V, G71Y
modifications: Description of sequence: FKBP13-AcGFP-mCherry Fusion; Construct Name: FKBP-159; FKBP13 DRD in Construct : FKBP13 (mutated to match FKBP12 active site Q72R Q84E A117W) (DRD M54A G111Y)
B13: FKBP-151: FKBP13 DRD Q72R, Q84R, A117W, M54A; SEQ ID NO: 101 (protein)
chain: B1 chain with W39S, R45V
modifications: Description of sequence: FKBP13-AcGFP-mCherry Fusion; Construct Name: FKBP-151; FKBP13 DRD in Construct : FKBP13 (mutated to match FKBP12 active site Q72R Q84R A117W) (DRD M54A)

Tested on: Jurkat cells
Assay: Tacrolimus dose response of FKBP13-AcGFP-mCherry constructs stably transduced into Jurkat cells, GFP MFI by flow cytometry
Type: cell-based
Design: Basal: unit not given here
Conditions: FIG. 44
Procedure, shortened: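 GFP geometric MFI was read by flow cytometry in mCherry+ cells and curve-fitted against tacrolimus dose. Cells were Jurkat E6-1, lentivirus-transduced with FKBP13-AcGFP-mCherry fusion constructs until 10-25% mCherry-positive on day 5 post-transduction.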

Row | Molecule | Basal | FC
1 | B1 | 96 | 47.22
2 | B2 | 72.7 | 60.19

Same assay, conditions: FIG. 44; at 10 uM

Row | Molecule | At 10 uM
3 | B1 | 4533
4 | B2 | 4376

Same assay, conditions: read-out: Tacrolimus EC90 (Norm); tacrolimus; normalized; Table 14

Row | Molecule | EC90 [nM]
5 | B3 | 1320
6 | B4 | 27.2
7 | B5 | 138
8 | B1 | 334
9 | B2 | 351
10 | B6 | 223
11 | B7 | 493

Same assay, conditions: read-out: Tacrolimus EC90; tacrolimus; Table 14

Row | EC90 [nM] | Molecule
12 | 1140 | B3
13 | 25 | B4
14 | 133 | B5
15 | 348 | B1
16 | 342 | B2
17 | 220 | B6
18 | 448 | B7

Same assay, conditions: tacrolimus, Jurkat cells stably transduced; Table 6

Row | Molecule | Fold Change
19 | B4 | 15.75

Same assay, conditions: tacrolimus, Jurkat cells stably transduced; Table 7

Row | Molecule | Fold Change
20 | B3 | 51.33
21 | B8 | 30.34
22 | B4 | 18.6
23 | B9 | 18.36
24 | B10 | 1.25
25 | B11 | 14
26 | B12 | 1.06
27 | B13 | 42.03

Same assay, conditions: tacrolimus; FIG. 35

Row | Molecule | FC | Peak
28 | B4 | 24.07 | 5193

Same assay, conditions: tacrolimus; FIG. 36

Row | Molecule | FC | Peak
29 | B4 | 24.07 | 5193

Same assay, conditions: tacrolimus; FIG. 37

Row | Molecule | FC | Peak
30 | B4 | 24.07 | 5193

Same assay, conditions: tacrolimus; FIG. 38

Row | Molecule | FC | Peak
31 | B4 | 24.07 | 5193

Same assay, conditions: tacrolimus; fold change; Table 14

Row | Molecule | Tacrolimus FC
32 | B3 | 63.5
33 | B4 | 21.2
34 | B5 | 47.6
35 | B1 | 46.8
36 | B2 | 60.2
37 | B6 | 46
38 | B7 | 50.1

Tested on: Jurkat cells
Assay: Sirolimus (rapamycin) dose response of FKBP13 constructs stably transduced into Jurkat cells, flow cytometry
Type: cell-based
Conditions: rapamycin (sirolimus), Jurkat cells stably transduced; Table 8
Experimental: Normalized EC50 values were calculated from the mCherry normalized GFP MFI values, which accounted for any differences in mCherry intensity between samples.

Row | Molecule | Fold Change
39 | B3 | 7.92
40 | B8 | 23.17
41 | B4 | 6.9
42 | B9 | 8.77
43 | B10 | 0.84
44 | B11 | 3.9
45 | B12 | 0.81
46 | B13 | 10.15

Same assay, conditions: rapamycin; Table 14; read-out: Rapamycin EC90

Row | EC90 [nM] | Molecule
47 | 1010 | B3
48 | 170 | B4
49 | 785 | B5
50 | 1720 | B1
51 | 1380 | B2
52 | 1640 | B6
53 | 1390 | B7

Same assay, conditions: rapamycin; fold change; Table 14

Row | Molecule | Rapamycin FC
54 | B3 | 11.2
55 | B4 | 7.6
56 | B5 | 16.1
57 | B1 | 11.3
58 | B2 | 18
59 | B6 | 15.7
60 | B7 | 10.8

Same assay, conditions: rapamycin; normalized; Table 14; read-out: Rapamycin EC90 (Norm)

Row | Molecule | EC90 [nM]
61 | B3 | 1080
62 | B4 | 171
63 | B5 | 818
64 | B1 | 1710
65 | B2 | 1330
66 | B6 | 1580
67 | B7 | 1420

Same assay, conditions: ratio of EC50 and fold change, Table 9

Row | Molecule | difference between rapamycin and tacrolimus
68 | B3 | largest difference between rapamycin and tacrolimus

Same assay, conditions: ratio of Table 7 and Table 8 EC50 values, Jurkat cells

Row | EC50 (tacrolimus)/ EC50 (rapamycin) | Molecule
69 | 0.97 | B3
70 | 0.55 | B8
71 | 0.20 | B4
72 | 0.56 | B9
73 | 0.35 | B11
74 | 1.22 | B12
75 | 0.91 | B13

Same assay, conditions: ratio of Table 7 and Table 8 fold changes, Jurkat cells

Row | Molecule | Fold change (tacrolimus)/ Fold change (rapamycin)
76 | B3 | 6.48
77 | B8 | 1.31
78 | B4 | 2.70
79 | B9 | 2.09
80 | B10 | 1.49
81 | B11 | 3.59
82 | B12 | 1.31
83 | B13 | 4.14

Tested on: not listed separately
Assay: Example 4: dose response of FKBP constructs 160-255, Ec50, Ec90 and fold change (raw and normalized to mCherry)
Type: cell-based
Conditions: FKBP constructs 160-255; not normalized; read-out: EC90
Experimental: Additional experiments were performed for constructs FKBP-160-292.

Row | Molecule | EC90 [nM]
84 | B5 | 133
85 | B1 | 348
86 | B2 | 342
87 | B6 | 220
88 | B7 | 448

Same assay, conditions: fold change during initial analysis

Row | Molecule | FC (fold change)
89 | B5 | 47.6
90 | B1 | 46.8
91 | B2 | 60.2
92 | B6 | 46.0
93 | B7 | 50.1

Same assay, conditions: normalized to mCherry; read-out: EC90 (Norm)

Row | Molecule | EC90 [nM]
94 | B5 | 138
95 | B1 | 334
96 | B2 | 351
97 | B6 | 223
98 | B7 | 493
